# Measured values taken from patent US20130004947A1, “LUCIFERASE-LINKED ANALYSIS OF DNA-METHYLTRANSFERASE, PROTEIN METHYLTRANSFERASE AND S-ADENOSYLHOMOCYSTEINE AND USES THEREOF” (priority 2010, published 2013).
# Several values for one entry are separate records, joined by “and”; a condition that tells them apart may be missing. Equal values may be shown once. Read-outs that look alike come from different tables or passages of the source.
# Columns and labels:
# Format in all cases: biochemical
# AdoMet and poly(dIdC) [1] = assay: continuous luciferase-linked AdoHcy assay of DNMT kinetics; conditions: for activity of catalytic domain alone (initial reaction rates): without DNMT3L, even at high substrate and enzyme concentrations
# Experimental: AdoHcy to ATP Conversion Buffer. The 2×AdoHcy to ATP conversion buffer was prepared as previously described with minor modifications (17). In brief, 100 mL of buffer contained 100 mM Tris-acetate pH 7.7, 2 mM PEP, 2 mM sodium pyrophosphate, 2 mM PRPP, 15 mM (NH4)2SO4, 15 mM (NH4)2MoO4, and phosphatase inhibitors (Roche PhosSTOP, 10 tablets). A 4:1 cellulose:charcoal mixture was suspended in water and packed into a disposable mini-column to a bed volume of 1.5 mL, through which a 10 mL aliquot of the previously prepared buffer was passed at 2 mL/min to remove traces of adenine, AMP, and ATP. Treated buffer was filtered (0.2 μm) and stored in 1 mL aliquots at −80° C. Immediately prior to use, the 2× conversion buffer was completed by additions to give final concentrations of 10 mM MgSO4, 6 U APRTase, 18 U PPDK, and 250 nM MTAN and an increase in volume of 14 μL.
# DNMT Kinetics using Continuous Luciferase Assay. Continuous assay buffer (2×) was prepared by adding 200 μl luciferin/luciferase (ATPlite) to 1 mL of the AdoHcy to ATP conversion buffer and warmed to room temperature. To 25 μL of this mixture was added AdoMet and the DNA substrate in DNMT assay buffer (25 mM HEPES pH 7.6, 50 mM KCl, 5% glycerol, 0.1% DTT) in a 96-well non-binding surface microplate. The mixture was incubated at room temperature for 3 min to permit any contaminating adenine, AMP, ATP or 5′-methylthioadenosine (MTA) to be converted to a stable background light signal as measured in the kinetic acquisition mode of the luminometer for 3 min. DNMT was added to give a final volume of 50 μL. After 3 min, the luminescent signal was measured for the following 3 min. […] Initial rates were calculated by subtracting the background rate from that obtained after DNMT addition. Initial rates were fitted to the Morrison equation for tight binding substrates with the exception of data obtained while using M.SssI CpG methyltransferase which were fit to the Michaelis-Menten equation. The Morrison equation was used as high enzyme concentrations were necessary and it could no longer be assumed that free substrate concentration was equal to total substrate concentration. The kinetic parameters Km and Vmax were obtained from these fits after converting the luminescent rate (RLU/s) to an enzymatic rate (pmol AdoHcy/h) using the AdoHcy standard curve. The AdoHcy standard curve was constructed by mixing 25 μL of DNMT assay buffer containing varied concentrations of AdoHcy with 25 μL of continuous assay buffer, incubating for several minutes, and then measuring the luminescence of each sample in the discontinuous acquisition mode of the luminometer. Values were background corrected using a mixture containing no AdoHcy.
# AdoMet and poly(dIdC) [2] = assay: discontinuous luciferase-linked AdoHcy assay of DNMT1 rate; conditions: 258 nM DNMT1, 682 nM AdoMet
# Experimental: DNMT1 Rate Measurement using Discontinuous Luciferase Assay. DNMT1 was added to a solution of 682 nM AdoMet and 1 μg poly(dIdC) in DNMT assay buffer to a concentration of 258 nM in 300 μL total volume which had been equilibrated to 22° C. or 37° C. A control reaction containing no DNMT1 was also performed at 37° C. 15 μL aliquots of the reaction were quenched with 5 μL of 100 mM HCl at 2 min intervals from 2 to 10 min in triplicate. These were neutralized with 5 μL of 100 mM KOH and were mixed with 25 μL of 2×AdoHcy to ATP conversion buffer and incubated at room temperature for several minutes. 20 μL of each mixture were then mixed with 80 μL of ATPlite in a 96-well non-binding surface microplate. These mixtures were incubated at room temperature for several minutes and their luminescence was measured in the single measurement mode of the luminometer. […]
# Initial reaction rates for human DNMT1 were measured both at room temperature and at 37° C. […] After incubation at room temperature for ˜3 min, the luminescence of each sample was measured and an initial rate plot was constructed (FIG. 5A). Initial rates measured in RLU/s were converted to units of pmol/h with an AdoHcy standard curve constructed under the same assay conditions (Table 2). […] The discontinuous rates were readily measured even at low AdoMet concentrations, and the assay is suitable for automated screening. […]
# [3] = system: [methyl-3H]AdoMet and poly(dIdC); assay: radiometric filter paper assay of DNMT1 rate; conditions: 258 nM DNMT1, 672 nM [methyl-3H]AdoMet
# Experimental: DNMT1 Rate Measurement using Radiometric Assay. The same two reactions were prepared as above for the discontinuous luciferase assay with the exception that 672 nM S-adenosyl-1-[methyl-^3H]methionine was used in place of non-radioactive AdoMet. 15 μL aliquots were removed from each reaction in triplicate at 2 min intervals from 2 to 8 min and spotted on 2.3 cm diameter Whatman DE81 filter paper circles which were allowed to dry for 30 min. The circles were washed with 0.2 M NH4HCO3 (4×2 mL), water (4×2 mL), and absolute ethanol (1×2 mL); each wash lasted 5 min before decanting the liquid. Circles were then dried for 1 h, then placed in scintillation vials and covered with 10 mL Betaplate Scint scintillation fluid. Radioactivity was measured on a Tricarb scintillation counter and background was corrected with a no-enzyme control. A conversion factor of 12 CPM/fmol was used.
# Parallel reactions were performed with 672 nM [methyl-^3H]AdoMet to compare the initial rates from the luciferase assay with those obtained from the radiometric filter paper assay (4, 5). Reactions were limited to approximately 700 nM AdoMet because of the concentration of the [methyl/-^3H]AdoMet stock solution. The luciferase-linked assays were performed at the same AdoMet concentration. […] The dried circles were analyzed for radioactivity in a scintillation counter. […]
substance,measurement,setting,value
"CD-DNMT3a: 286 amino acid C-terminal catalytic domain of human DNMT3a (residues 627-912), His6 tagged",activity of catalytic domain alone (initial reaction rates),AdoMet and poly(dIdC) [1],low activity
"CD-DNMT3b: 286 amino acid C-terminal catalytic domain of human DNMT3b (residues 568-853), His6 tagged",activity of catalytic domain alone (initial reaction rates),AdoMet and poly(dIdC) [1],low activity
"DNMT1: full-length human DNA (cytosine 5)-methyltransferase 1, N-terminal His6 tag, expressed in SF9 cells",Initial rate,AdoMet and poly(dIdC) [2]; 22° C. (room temperature),6.3 pmol/h and 6.26 pmol/h
same,Initial rate,AdoMet and poly(dIdC) [2]; 37° C.,7.5 pmol/h and 7.52 pmol/h
same,Initial rate,[3]; 22° C.,11.6 pmol/h
same,Initial rate,[3]; 37° C.,13.0 pmol/h
same,Initial rate,"AdoMet and poly(dIdC) [1]; continuous assay, 258 nM DNMT1, 682 nM AdoMet, 1 μg poly(dIdC) per 50 μL",30 pmol/h and 30.1 pmol/h
same,Vmax,AdoMet and poly(dIdC) [1]; room temperature,726 ± 75 pmol/h
same,kcat,AdoMet and poly(dIdC) [1]; room temperature,0.00778 ± 0.00083 s⁻¹ and 0.00781 s⁻¹
same,Km,"AdoMet and poly(dIdC) [1]; room temperature, 1 μg poly(dIdC), value as printed in the text, read-out: Km for AdoMet",2.7 ± 0.7 µM
same,Km,"AdoMet and poly(dIdC) [1]; room temperature, near saturating AdoMet: 35 μM for DNMT1, 10 μM for CD-DNMT3a/3b complexes with DNMT3L, read-out: Km DNA (poly(dIdC))",0.84 µM and 0.837 µM
same,Km,"AdoMet and poly(dIdC) [1]; room temperature, near saturating poly(dIdC), dIdC base pair concentration 16.4 μM, read-out: Km AdoMet",2.66 ± 0.75 µM
